The text below walks through data of patent US20210145976A1 (ARO BIOTHERAPEUTICS, published 2021).

Numbering of substitutions follows the chain as printed.

The target of test [1] is T1, recombinant biotinylated CD71 extracellular domain (Sino Biologics) with an N-terminal 6His tag (human, UniProt P02786 89-760, biotinylated (sites not given)).
T1 construct: extracellular domain; also called hCD71; huCD71
Put plainly: screening ELISA. For orientation: In an ELISA, binding on a coated surface is turned into a signal by an enzyme label.

Test [2] addresses T1, recombinant biotinylated CD71 …. The experiment in a line: screening ELISA, ratio.

T1 sequence (P02786 other isoform, or with tags, fused parts or gaps): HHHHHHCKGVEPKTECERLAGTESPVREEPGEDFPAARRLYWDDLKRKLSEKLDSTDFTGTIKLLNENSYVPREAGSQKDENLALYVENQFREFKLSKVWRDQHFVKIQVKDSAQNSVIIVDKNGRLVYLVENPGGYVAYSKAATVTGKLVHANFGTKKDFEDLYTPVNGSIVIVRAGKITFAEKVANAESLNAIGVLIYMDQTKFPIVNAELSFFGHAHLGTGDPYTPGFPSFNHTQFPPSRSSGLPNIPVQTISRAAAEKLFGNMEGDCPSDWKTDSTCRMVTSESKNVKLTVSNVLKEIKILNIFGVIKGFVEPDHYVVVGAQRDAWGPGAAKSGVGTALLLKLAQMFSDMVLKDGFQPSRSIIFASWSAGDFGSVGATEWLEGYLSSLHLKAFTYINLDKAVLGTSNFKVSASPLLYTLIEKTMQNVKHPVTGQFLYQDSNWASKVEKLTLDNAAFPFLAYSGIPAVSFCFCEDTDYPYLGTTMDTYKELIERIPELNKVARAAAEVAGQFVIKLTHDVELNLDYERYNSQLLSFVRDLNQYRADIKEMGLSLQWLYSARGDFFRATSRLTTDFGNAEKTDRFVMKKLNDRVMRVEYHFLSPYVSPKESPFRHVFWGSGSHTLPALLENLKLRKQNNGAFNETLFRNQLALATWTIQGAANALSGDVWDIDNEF

B1: SEQ ID NO 154 (designed binder)
chain: MLPAPKNLVVSRVTEDSARLSWTAPDAAFDSFFIPYAEPRPDGEAIVLTVPGSERSYDLTGLKPGTEYSVLIHGVKGGLLSSPLSAIFTT
notes: FN3 domain
For the molecule B1, in test [1], the hCD71 stood at 2.78e+06. The “hCD71:HSA” value in test [2] stood at 670.

B2: SEQ ID NO 156 (designed binder)
chain: MLPAPKNLVVSRVTEDSARLSWTAPDAAFDSFAIEYFENLGIGEAIVLTVPGSERSYDLTGLKPGTEYVVNIYGVKGGWLSSPLSAIFTT
notes: FN3 domain
Take B2: in test [1], the hCD71 is 1.03e+06. In addition, the “hCD71:HSA” value in test [2] stood at 206.

B3: SEQ ID NO 82 (designed binder)
chain: B2 chain with E35A, F37V, N39W, L40W, G41K, I42L, N71P, Y73P, W79G, L80H
notes: FN3 domain
Regarding B3, the hCD71 in test [1] was 3.53e+06. In test [2], the “hCD71:HSA” value is 187.

B4: SEQ ID NO 135 (designed binder)
chain: MLPAPKNLVVSRVTEDSARLSWTAPDAAFDSFPISYYEMSGLGEAIVLTVPGSERSYDLTGLKPGTEYMVYIFGVKGGLNSLPLSAIFTT
notes: FN3 domain
For the molecule B4, in test [1], the hCD71 was 2.06e+06. In test [2], the “hCD71:HSA” value turned out to be 1370.

B5: SEQ ID NO 144 (designed binder)
chain: B1 chain with F33I, P39V, L79K, S82L
notes: FN3 domain
As for B5, in test [1], the hCD71 came to 2.71e+06. Also, the “hCD71:HSA” value in test [2] turned out to be 986.

B6: SEQ ID NO 117 (designed binder)
chain: MLPAPKNLVVSRVTEDSARLSWTAPDAAFDSFTIPYGEAFNPGEAIVLTVPGSERSYDLTGLKPGTEYDVFIEGVKGGTLSWPLSAIFTT
notes: FN3 domain
As for B6, in test [1], the hCD71 is 1.5e+06. For the same molecule, the “hCD71:HSA” value in test [2] was 64.

B7: SEQ ID NO 98 (designed binder)
chain: B6 chain with V13I, T33D, A39F, F40D, N41T, P42I, F71Y, T79H
notes: FN3 domain
For B7, the hCD71 in test [1] is 1.16e+06. Moreover, in test [2], the “hCD71:HSA” value came out at 75.

B8: SEQ ID NO 158 (designed binder)
chain: MLPAPKNLVVSRVTEDSARLSWTAPDAAFDSFIIDYLELDDYGEAIVLTVPGSERSYDLTGLKPGTEYPVYIYGVKGGLPSTPLSAIFTT
notes: FN3 domain
Regarding B8, the hCD71 in test [1] was 2.06e+06. Besides, the “hCD71:HSA” value in test [2] worked out at 1520.

B9: SEQ ID NO 132 (designed binder)
chain: B6 chain with P35V, G37A, A39V, F40T, N41Y, P42D, T79E
notes: FN3 domain
For B9, the hCD71 in test [1] came to 2.75e+06. Moreover, in test [2], the “hCD71:HSA” value was 1170.

B10: SEQ ID NO 86 (designed binder)
chain: MLPAPKNLVVSRVTEDSARLSWTAPDAAFDSFIIWYAEWVNDGEAIVLTVPGSERSYDLTGLKPGTEYRVEITGVKGGTWSRPLSAIFTT
notes: FN3 domain
For the molecule B10, the hCD71 in test [1] is 3.39e+06. Also, in test [2], the “hCD71:HSA” value was determined as 1510.

B11: SEQ ID NO 122 (designed binder)
chain: MLPAPKNLVVSRVTEDSARLSWTAPDAAFDSFQIPYWEQSLGGEAIVLTVPGSERSYDLTGLKPGTEYEVWIEGVKGGDLSFPLSAISTT
notes: FN3 domain
Consider B11, for which the hCD71 in test [1] was found to be 2.31e+06. Further, in test [2], the “hCD71:HSA” value stood at 78.

B12: SEQ ID NO 88 (designed binder)
chain: B2 chain with A33W, N39W, L40T, G41V, I42G, V69Y, N71S, S82P
notes: FN3 domain
With B12, the hCD71 in test [1] was 708000. The “hCD71:HSA” value in test [2] came out at 118.

B13: SEQ ID NO 141 (designed binder)
chain: B2 chain with A33V, N39Q, L40F, G41N, I42L, V69L, N71G, S82H
notes: FN3 domain
With B13, the hCD71 in test [1] came to 2.04e+06. Besides, the “hCD71:HSA” value in test [2] amounted to 648.

B14: SEQ ID NO 145 (designed binder)
chain: B1 chain with R40S, D42T, S69D, L71W, H73E, L79T, S82W
notes: FN3 domain
Consider B14, for which the hCD71 in test [1] is 1.62e+06. Also, the “hCD71:HSA” value in test [2] was found to be 33.

B15: SEQ ID NO 138 (designed binder)
chain: B10 chain with I33F, W35K, A37I, V40W, N41A, R69L, T73Y, T79R, W80Q, R82Y
notes: FN3 domain
As to B15, the hCD71 in test [1] turned out to be 4.18e+06. Moreover, the “hCD71:HSA” value in test [2] came out at 1190.

B16: SEQ ID NO 90 (designed binder)
chain: B6 chain with P35H, G37W, A39F, F40D, N41P, D69T, F71Y, T79W, L80W, W82K
notes: FN3 domain
Turning to B16, in test [1], the hCD71 worked out at 1.09e+06. For the same molecule, the “hCD71:HSA” value in test [2] amounted to 429.

B17: SEQ ID NO 114 (designed binder)
chain: B2 chain with F37W, N39A, L40V, I42S, V69H, N71Y, W79Y, S82L
notes: FN3 domain
Consider B17, for which the hCD71 in test [1] was determined as 3.27e+06. Moreover, in test [2], the “hCD71:HSA” value stood at 780.

B18: SEQ ID NO 93 (designed binder)
chain: B8 chain with I33Y, D35G, L39P, D40G, Y42N, P69N, Y71S, Y73G, P80G, T82Y
notes: FN3 domain
For B18, the hCD71 in test [1] is 2.16e+06. Moreover, the “hCD71:HSA” value in test [2] worked out at 1310.

B19: SEQ ID NO 116 (designed binder)
chain: B1 chain with F33S, P35A, A37S, P39V, P41Y, S69V, L71P, H73G, L79G, L80S
notes: FN3 domain
Take B19: the hCD71 in test [1] turned out to be 536000. Further, the “hCD71:HSA” value in test [2] is 358.

B20: SEQ ID NO 137 (designed binder)
chain: MLPAPKNLVVSRVTEDSARLSWTAPDAAFDSFEIEYDEPSVAGEAIVLTVPGSERSYDLTGLKPGTEYRVFIWGVKGGNQSWPLSAIFTT
notes: FN3 domain
As to B20, in test [1], the hCD71 is 484000. Also, the “hCD71:HSA” value in test [2] is 236.

B21: SEQ ID NO 125 (designed binder)
chain: B2 chain with A33V, N39F, L40V, I42E, V69D, N71G, W79S
notes: FN3 domain
With B21, the hCD71 in test [1] was determined as 2.33e+06. Also, the “hCD71:HSA” value in test [2] was determined as 2220.

B22: SEQ ID NO 105 (designed binder)
chain: B4 chain with P33G, S35A, M39R, L42A, F73N, L79F, N80V, L82S
notes: FN3 domain
As to B22, in test [1], the hCD71 came to 1.76e+06. Besides, the “hCD71:HSA” value in test [2] was 1260.

B23: SEQ ID NO 110 (designed binder)
chain: MLPAPKNLVVSRVTEDSARLSWTAPDAAFDSFFIHYHEWWEAGEAIVLTVPGSERSYDLTGLKPGTEYLVDIPGVKGGDLSVPLSAIFTT
notes: FN3 domain
For the molecule B23, in test [1], the hCD71 was 1.68e+06. Further, the “hCD71:HSA” value in test [2] turned out to be 89.

B24: SEQ ID NO 131 (designed binder)
chain: B4 chain with P33S, S35D, M39G, S40K, L42Y, M69Q, Y71L, F73S, L79K, N80Y
notes: FN3 domain
On to B24, for which the hCD71 in test [1] was 2.18e+06. For the same molecule, the “hCD71:HSA” value in test [2] came out at 910.

B25: SEQ ID NO 160 (designed binder)
chain: B6 chain with T33N, P35A, A39W, F40R, N41Q, P42H, E73D, T79N
notes: FN3 domain
As to B25, the hCD71 in test [1] worked out at 2.76e+06. For the same molecule, in test [2], the “hCD71:HSA” value turned out to be 836.

B26: SEQ ID NO 150 (designed binder)
chain: B1 chain with F33P, P35A, R40S, D42T, L79H, S82D
notes: FN3 domain
With B26, the hCD71 in test [1] was determined as 2.62e+06. Also, the “hCD71:HSA” value in test [2] turned out to be 748.

B27: SEQ ID NO 108 (designed binder)
chain: B6 chain with P35I, A39V, F40N, N41P, P42Y, T79H
notes: FN3 domain
Turning to B27, the hCD71 in test [1] worked out at 3.19e+06. In addition, the “hCD71:HSA” value in test [2] amounted to 2450.

B28: SEQ ID NO 147 (designed binder)
chain: B1 chain with P35G, A37L, R40Q, D42P, L79R, L80N, S82D, F88S
notes: FN3 domain
On to B28, for which the hCD71 in test [1] is 2.36e+06. Moreover, in test [2], the “hCD71:HSA” value came out at 33.

B29: SEQ ID NO 101 (designed binder)
chain: MLPAPKNLVVSRVTEDSARLSWTAPDAAFDSFAIDYDEPINSGEAIVLTVPGSERSYDLTGPKPGTEYEVEIYGVKGGYLSRPLSAIFTT
notes: FN3 domain
For B29, the hCD71 in test [1] stood at 1.97e+06. Moreover, in test [2], the “hCD71:HSA” value amounted to 216.

B30: SEQ ID NO 133 (designed binder)
chain: B6 chain with T33P, P35V, F40W, N41V, P42T, F71W, T79E
notes: FN3 domain
For B30, in test [1], the hCD71 stood at 4.28e+06. In addition, in test [2], the “hCD71:HSA” value is 855.

B31: SEQ ID NO 159 (designed binder)
chain: B1 chain with F33L, P39T, R40S, D42S, L79R, L80N, S82D
notes: FN3 domain
For the molecule B31, the hCD71 in test [1] was 2.58e+06. In addition, in test [2], the “hCD71:HSA” value was 1320.

B32: SEQ ID NO 151 (designed binder)
chain: B1 chain with R40S, D42T, S69G, L71V, H73L, L79Y, L80G, S82D
notes: FN3 domain
Turning to B32, in test [1], the hCD71 turned out to be 1.77e+06. Moreover, the “hCD71:HSA” value in test [2] turned out to be 32.

B33: SEQ ID NO 118 (designed binder)
chain: B6 chain with T33R, P35L, A39V, F40D, N41P, P42W, F71W, T79K
notes: FN3 domain
Regarding B33, the hCD71 in test [1] was 2.24e+06. In addition, the “hCD71:HSA” value in test [2] amounted to 119.

B34: SEQ ID NO 123 (designed binder)
chain: B6 chain with T33V, G37E, A39Y, F40L, N41Y, P42T, F71W, T79L, L80T
notes: FN3 domain
Regarding B34, in test [1], the hCD71 stood at 707000. Besides, the “hCD71:HSA” value in test [2] turned out to be 228.
